The text below walks through data of US20040254351A1 (published 2004).

Changes are numbered by the printed parent chain. Names may count otherwise.

This assay deals with T1, G-CSF receptor.
T1 sequence (Q99062 whole entry, species assumed, looked up): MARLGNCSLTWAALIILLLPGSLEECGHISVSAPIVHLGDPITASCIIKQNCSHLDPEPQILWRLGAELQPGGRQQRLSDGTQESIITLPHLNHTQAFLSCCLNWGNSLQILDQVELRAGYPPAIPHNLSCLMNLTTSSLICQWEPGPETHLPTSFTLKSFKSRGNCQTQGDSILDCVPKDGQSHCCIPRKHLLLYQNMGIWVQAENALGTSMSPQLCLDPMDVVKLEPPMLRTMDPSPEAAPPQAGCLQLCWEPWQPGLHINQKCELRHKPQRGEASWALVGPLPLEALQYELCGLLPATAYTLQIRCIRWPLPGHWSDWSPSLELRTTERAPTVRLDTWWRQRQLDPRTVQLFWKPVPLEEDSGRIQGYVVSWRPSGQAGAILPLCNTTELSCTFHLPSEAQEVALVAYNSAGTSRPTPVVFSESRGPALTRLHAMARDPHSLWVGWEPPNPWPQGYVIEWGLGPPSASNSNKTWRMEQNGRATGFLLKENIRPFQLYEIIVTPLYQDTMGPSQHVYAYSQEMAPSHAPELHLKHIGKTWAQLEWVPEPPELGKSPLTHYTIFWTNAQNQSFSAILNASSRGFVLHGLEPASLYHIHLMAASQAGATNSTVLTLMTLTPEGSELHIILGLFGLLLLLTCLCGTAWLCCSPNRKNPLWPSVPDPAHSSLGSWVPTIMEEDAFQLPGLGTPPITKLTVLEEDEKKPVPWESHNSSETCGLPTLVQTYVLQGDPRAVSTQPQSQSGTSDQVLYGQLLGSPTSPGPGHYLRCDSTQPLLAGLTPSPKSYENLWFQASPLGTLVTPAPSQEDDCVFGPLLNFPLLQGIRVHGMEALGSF
In words: cell-based or functional assay.

B1: G-CSF[E93N,I95T] (ligand)
chain: TPLGPASSLPQSFLLKALEQVRKIQGDGAALQEKLCATYKLCHPEELVLLGHSLGIPWAPLSSCPSQALQLAGCLSQLHSGLFLYQGLLQALNGTSPELGPTLDTLQLDVADFATTIWQQMEELGMAPALQPTQGAMPAFASAFQRRAGGVLVASHLQSFLEVSYRVLRHLAQP
modifications: consensus N-linked glycosylation site at Asn 93 (region 10)
For B1, the “EC50/Neupogen (reporter activity in cells expressing the G-CSF receptor)” value (from here on “EC50/Neupogen”) was 0.36 ratio to Neupogen.

B2: G-CSF[S63N,P65T] (ligand)
chain: B1 chain with S63N, P65T, N93E, T95I
modifications: consensus N-linked glycosylation site at Asn 63 (region 7)
Regarding B2, the “EC50/Neupogen” value is 0.9 ratio to Neupogen.

B3: G-CSF[A141N,A143T] (ligand)
chain: B1 chain with N93E, T95I, A141N, A143T
modifications: consensus N-linked glycosylation site at Asn 141 (region 14)
Take B3: the “EC50/Neupogen” value was 0.54 ratio to Neupogen.

B4: G-CSF[P57V,W58N,P60T] (ligand)
chain: B1 chain with P57V, W58N, P60T, N93E, T95I
modifications: consensus N-linked glycosylation site at Asn 58 (region 2)
Turning to B4, the “EC50/Neupogen” value is 0.59 ratio to Neupogen.

B5: G-CSF[Q67N,L69T] (ligand)
chain: B1 chain with Q67N, L69T, N93E, T95I
modifications: consensus N-linked glycosylation site at Asn 67 (region 9)
B5: the “EC50/Neupogen” value was 0.78 ratio to Neupogen.

B6: G-CSF[A37N,Y39T,S63N,P65T,E93N,I95T] (ligand)
chain: B1 chain with A37N, Y39T, S63N, P65T
modifications: consensus N-linked glycosylation sites at Asn 37, Asn 63 and Asn 93 (regions 1, 7 and 10)
Take B6: the “EC50/Neupogen” value was 0.97 ratio to Neupogen.

B7: G-CSF[A37N,Y39T,P57V,W58N,P60T,Q67N,L69T] (ligand)
chain: B1 chain with A37N, Y39T, P57V, W58N, P60T, Q67N, L69T, N93E, T95I
modifications: consensus N-linked glycosylation sites at Asn 37, Asn 58 and Asn 67 (regions 1, 2 and 9)
With B7, the “EC50/Neupogen” value is 0.53 ratio to Neupogen.

B8: G-CSF[P60N,S62T] (ligand)
chain: B1 chain with P60N, S62T, N93E, T95I
modifications: consensus N-linked glycosylation site at Asn 60 (region 4)
Turning to B8, the “EC50/Neupogen” value is 0.94 ratio to Neupogen.

B9: G-CSF[A37N,Y39T] (ligand)
chain: B1 chain with A37N, Y39T, N93E, T95I
modifications: consensus N-linked glycosylation site at Asn 37 (region 1)
B9: the “EC50/Neupogen” value was 0.8 ratio to Neupogen.

B10: G-CSF[T133N,G135T] (ligand)
chain: B1 chain with N93E, T95I, T133N, G135T
modifications: consensus N-linked glycosylation site at Asn 133 (region 13), replacing the O-linked site
For B10, the “EC50/Neupogen” value is 0.37 ratio to Neupogen.
